How the values were obtained:
[1] = tested on: non-human primates (cynomolgus monkey); experiment: Example 22: NHP serum chemistry ALT and AST (Tables 45, 46); format: in vivo
[2] = tested on: Sprague-Dawley rats; experiment: Example 35: duration after IM EPO mRNA in rats, serum EPO (Table 61); format: in vivo; conditions: rats IM 100 μg;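 further: serum concentration in pg/mL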
Method: The rats were bled 2, 6, 12, 24, 48 and 72 hours after the intramuscular injection to determine the concentration of human EPO in serum at a given time.

[3] = 0.005 mg/kg, 14 days, Female NHP
[4] = 0.005 mg/kg, Pre-dose, Female NHP
[5] = 0.005 mg/kg, Pre-dose, Male NHP
[6] = 0.05 mg/kg, 14 days, Female NHP
[7] = 0.05 mg/kg, Pre-dose, Female NHP
[8] = 0.5 mg/kg, Pre-dose, Female NHP

B1: EPO: modified mRNA encoding human erythropoietin, SEQ ID NO: 7, Cap1, fully modified with 5-methylcytosine and pseudouridine; LNP NPA-060-1 in Examples 17-22 (nucleic acid)
chain: GGGAAAUAAGAGAGAAAAGAAGAGUAAGAAGAAAUAUAAGAGCCACCAUGGGAGUGCACGAGUGUCCCGCGUGGUUGUGGUUGCUGCUGUCGCUCUUGAGCCUCCCACUGGGACUGCCUGUGCUGGGGGCACCACCCAGAUUGAUCUGCGACUCACGGGUACUUGAGAGGUACCUUCUUGAAGCCAAAGAAGCCGAAAACAUCACAACCGGAUGCGCCGAGCACUGCUCCCUCAAUGAGAACAUUACUGUACCGGAUACAAAGGUCAAUUUCUAUGCAUGGAAGAGAAUGGAAGUAGGACAGCAGGCCGUCGAAGUGUGGCAGGGGCUCGCGCUUUUGUCGGAGGCGGUGUUGCGGGGUCAGGCCCUCCUCGUCAACUCAUCACAGCCGUGGGAGCCCCUCCAACUUCAUGUCGAUAAAGCGGUGUCGGGGCUCCGCAGCUUGACGACGUUGCUUCGGGCUCUGGGCGCACAAAAGGAGGCUAUUUCGCCGCCUGACGCGGCCUCCGCGGCACCCCUCCGAACGAUCACCGCGGACACGUUUAGGAAGCUUUUUAGAGUGUACAGCAAUUUCCUCCGCGGAAAGCUGAAAUUGUAUACUGGUGAAGCGUGUAGGACAGGGGAUCGCUGAUAAGCUGCCUUCUGCGGGGCUUGCCUUCUGGCCAUGCCCUUCUUCUCUCCCUUGCACCUGUACCUCUUGGUCUUUGAAUAAAGCCUGAGUAGGAAG
modifications: Cap1, 5-methylcytosine, pseudouridine
ALT [1, 3]: 51 U/L
AST [1, 3]: 54 U/L
ALT ([1]; 0.005 mg/kg, 14 days, Male NHP): 43 U/L
AST ([1]; 0.005 mg/kg, 14 days, Male NHP): 35 U/L
ALT [1, 4]: 45 U/L
AST [1, 4]: 40 U/L
ALT [1, 5]: 45 U/L
AST [1, 5]: 39 U/L
ALT ([1]; 0.05 mg/kg, 2 days, Female NHP): 254 U/L
AST ([1]; 0.05 mg/kg, 2 days, Female NHP): 80 U/L
ALT ([1]; 0.05 mg/kg, 2 days, Male NHP): 95 U/L
AST ([1]; 0.05 mg/kg, 2 days, Male NHP): 61 U/L
ALT ([1]; 0.05 mg/kg, 4 days, Female NHP): 200 U/L
AST ([1]; 0.05 mg/kg, 4 days, Female NHP): 94 U/L
ALT ([1]; 0.05 mg/kg, 4 days, Male NHP): 70 U/L
AST ([1]; 0.05 mg/kg, 4 days, Male NHP): 48 U/L
ALT ([1]; 0.05 mg/kg, 7 days, Female NHP): 187 U/L
AST ([1]; 0.05 mg/kg, 7 days, Female NHP): 78 U/L
ALT ([1]; 0.05 mg/kg, 7 days, Male NHP): 64 U/L
AST ([1]; 0.05 mg/kg, 7 days, Male NHP): 53 U/L
ALT [1, 6]: 216 U/L
AST [1, 6]: 47 U/L
ALT ([1]; 0.05 mg/kg, 14 days, Male NHP): 29 U/L
AST ([1]; 0.05 mg/kg, 14 days, Male NHP): 32 U/L
ALT [1, 7]: 160 U/L
AST [1, 7]: 58 U/L
ALT ([1]; 0.05 mg/kg, Pre-dose, Male NHP): 56 U/L
AST ([1]; 0.05 mg/kg, Pre-dose, Male NHP): 74 U/L
ALT ([1]; 0.5 mg/kg, 2 days, Female NHP): 77 U/L
AST ([1]; 0.5 mg/kg, 2 days, Female NHP): 141 U/L
ALT ([1]; 0.5 mg/kg, 2 days, Male NHP): 98 U/L
AST ([1]; 0.5 mg/kg, 2 days, Male NHP): 125 U/L
ALT ([1]; 0.5 mg/kg, 4 days, Female NHP): 87 U/L
AST ([1]; 0.5 mg/kg, 4 days, Female NHP): 60 U/L
ALT ([1]; 0.5 mg/kg, 4 days, Male NHP): 94 U/L
AST ([1]; 0.5 mg/kg, 4 days, Male NHP): 71 U/L
ALT ([1]; 0.5 mg/kg, 7 days, Female NHP): 59 U/L
AST ([1]; 0.5 mg/kg, 7 days, Female NHP): 47 U/L
ALT ([1]; 0.5 mg/kg, 7 days, Male NHP): 60 U/L
AST ([1]; 0.5 mg/kg, 7 days, Male NHP): 56 U/L
ALT ([1]; 0.5 mg/kg, 14 days, Female NHP): 44 U/L
AST ([1]; 0.5 mg/kg, 14 days, Female NHP): 44 U/L
ALT ([1]; 0.5 mg/kg, 14 days, Male NHP): 88 U/L
AST ([1]; 0.5 mg/kg, 14 days, Male NHP): 82 U/L
ALT [1, 8]: 31 U/L
AST [1, 8]: 20 U/L
ALT ([1]; 0.5 mg/kg, Pre-dose, Male NHP): 50 U/L
AST ([1]; 0.5 mg/kg, Pre-dose, Male NHP): 59 U/L
human EPO in serum, Avg. ([2]; 2 hour): 59.6 pg/mL
human EPO in serum, Geometric-mean ([2]; 2 hour): 58.2 pg/mL
human EPO in serum, Avg. ([2]; 6 hour): 68.6 pg/mL
human EPO in serum, Geometric-mean ([2]; 6 hour): 55.8 pg/mL
human EPO in serum, Avg. ([2]; 12 hour): 87.4 pg/mL
human EPO in serum, Geometric-mean ([2]; 12 hour): 84.5 pg/mL
human EPO in serum, Avg. ([2]; 24 hour): 108.6 pg/mL
human EPO in serum, Geometric-mean ([2]; 24 hour): 95.3 pg/mL
human EPO in serum, Avg. ([2]; 48 hour): 77.9 pg/mL
human EPO in serum, Geometric-mean ([2]; 48 hour): 77.0 pg/mL
human EPO in serum, Avg. ([2]; 72 hour): 80.1 pg/mL
human EPO in serum, Geometric-mean ([2]; 72 hour): 75.8 pg/mL

From patent US20190142971A1, “FORMULATION AND DELIVERY OF MODIFIED NUCLEOSIDE, NUCLEOTIDE, AND NUCLEIC ACID COMPOSITIONS” (ModernaTX, Inc., priority 2013, published 2019)
